From US20240002497A1 (Merck Sharp & Dohme, published 2024)
Blank lines part the entries; values can stand above or below the binder they belong to.

How the values were obtained:
huNav1.7α + β1-β2-β3 [1] = target: T1, huNav1.7α + β1-β2-β3 (human, UniProt Q15858 1-1988; A5A6L6 19-218; O60939 30-215; Q2KI11 23-215); assay: competition FACS, HEK FlpIn cells, vs EC30 of CMYC3-F0103265B04
T1 construct: Cell line (CHO FlpIn, HEK FlpIn, transient HEK293T) is named under assay; also called huNav1.7-beta1-beta2-beta3; human Nav1.7α with Navβ1, Navβ2 and Navβ3
Description: Competition FACS assays were performed with CMYC3-tagged ISVD F0103265B04 or F0103275B05(N93R) affinity maturation variant on a HEK FlpIn huNav1.7α+β1−β2−β3 transgenic cell line. Briefly, cells were resuspended in FACS buffer (PBS, 2% FBS, 0.05% NaN₃) and 1×10⁵ cells/well were transferred to 96-well V-bottom plates. Cells were subsequently resuspended in a 100 μL mixture of purified ISVD (dilution series) and CMYC3-tagged ISVD F0103265B04 (at a concentration equivalent to EC30) followed by incubation for 1.5 hours at 4° C. […] Between each step, the cells were centrifuged for 5 minutes at 200 g and washed with 100 μL/well FACS buffer. Prior to the read-out, the samples were resuspended in 5 nM TOPRO3 (Molecular probes, catalog #T3605) to exclude dead cells. F0103262CO2, F0103262B06, F0103265A11, F0103265B04, F0103275B05, F0103362B08, and F0103387G04 all compete with F0103265B04 for binding to huNav1.7α, in contrast to an irrelevant control ISVD (IRR) (see Table 21 and FIG. 15A, FIG. 15B, FIG. 15C, and FIG. 15D).

huNav157chim6 + β1-β2-β3 = target: T2, huNav157chim6 + β1-β2-β3 (human); assay: FACS, transiently transfected HEK293T cells
T2 construct: DI, DII, DIV from Nav1.5α, DIII from Nav1.7α; also called huNav157 chimera 6
Description: (§1) Binding of the ISVDs to cell-expressed Nav1.7α was detected via murine anti-Flag (Sigma, catalog #F1804). Briefly, cells were resuspended in FACS buffer (PBS, 10% FBS, NaN₃) and transferred to a 96-well V-bottom plate at 1×10^5 cells/well. Purified FLAG3-tagged ISVD was diluted in FACS buffer and added to the cells for 30 minutes at 4° C. […] Prior to the read-out, the samples were resuspended in 1 μg/mL propidium iodide (Sigma, catalog #P4170) to exclude dead cells. Between each step, the cells were centrifuged for 5 minutes at 200 grams and washed with 100 μL/well FACS buffer.
(§2) FACS binding studies (as described above) were performed on HEK293T cells transiently transfected with expression vectors encoding a huNav1.7α or rhNav1.7α fused at the C-terminus via a P2A viral peptide linker to a single polypeptide encoding sodium channel beta subunits Navβ1, Navβ2, and Navβ3 in tandem (β1-β2-β3; SEQ ID NO:21). Similarly, HEK293T cells transiently transfected with expression vectors encoding chimeric variants of huNav1.7α in which individual domains are replaced by their huNav1.5α counterparts (chimeras 1 to 4 in FIG. 16) or with chimeric variants of huNav1.5 in which individual domains are replaced by their huNav1.7α counterparts (chimeras 5 to 8 in FIG. 16) fused at the C-terminus via a P2A viral peptide linker to β1-β2-β3 as above. See Table 7 for description of the expression vectors encoding the chimeras, Table 21 and FIG. 16).

huNav157chim7 + β1-β2-β3 = target: T3, huNav157chim7 + β1-β2-β3 (human); assay: FACS, transiently transfected HEK293T cells
T3 construct: DI, DIII, DIV from Nav1.5α, DII from Nav1.7α; also called huNav157 chimera 7
Description: as §1, §2

huNav157chim5 + β1-β2-β3 = target: T4, huNav157chim5 + β1-β2-β3 (human); assay: FACS, transiently transfected HEK293T cells
T4 construct: DI, DII, DIII from Nav1.5α, DIV from Nav1.7α; also called huNav157 chimera 5
Description: as §1, §2

huNav157chim4 + β1-β2-β3 = target: T5, huNav157chim4 + β1-β2-β3 (human, UniProt Q15858 44-1988; A5A6L6 19-218; O60939 30-215; Q2KI11 23-215); assay: FACS, transiently transfected HEK293T cells
T5 construct: DII, DIII, DIV from Nav1.7α, DI from Nav1.5α; also called huNav157 chimera 4
Description: as §1, §2

[2] = target: T6, huNav157chim12 + β1-β2-β3 (human, UniProt Q15858 1-1988; A5A6L6 19-218; O60939 30-215; Q2KI11 23-215); assay: FACS, transiently transfected HEK293T cells
T6 construct: DI S5-S6 from Nav1.5α, rest Nav1.7α; also called huNav157 chimera 12
Description: as §1, §2

huNav1.7α + β1-β2-β3 [3] = target: T1, huNav1.7α + β1-β2-β3; assay: binding FACS, CHO FlpIn cells
Description: as §1
(§3) Based on the huNav1.7α model (as described above) the following huNav1.7α-rhNav1.7α polymorphisms can be allocated to the extracellular part of DI: N146S, F276V, R277Q, E281V and V331M. The first of the residues is in DI S1-S2 whereas the latter four residues belong to DI S5-S6. FACS binding studies (as described above) were performed to stable CHO FlpIn cell lines expressing different variants of huNav1.7+β1−β2−β3 each including one of the four possible extracellular huNav1.7α-rhNav1.7α polymorphisms in the DI S5-S6 region: F276V, R277Q, E281V and V331M (Table 23 and FIGS. 22A-22F). Individual polymorphisms were each sufficient to abolish the binding of F0103265B04, F0103362B08, F010301080, and F0103262B06 to huNav1.7α, recapitulating the absence of binding on rhNav1.7α. F0103262CO2, F0103275B05 and F0103387G05 are more subtly affected in terms of EC50 or Bmax by some of the polymorphisms. None of the individual DI S5-S6 polymorphisms by themselves appear to have an impact on the binding of the two rhNav1.7α cross-reactive ISVDs F0103387G04 and F0103464B09. In addition, no effect on binding of the two ISVDs was observed (data not shown) for the three extracellular DIV VSD huNav1.7α-rhNav1.7α polymorphisms Q1530P, H1531Y and E1534D (FIG. 22G).

[4] = target: T7, huNav1.7α(F276V) + β1-β2-β3 (human, UniProt Q15858 1-1988; A5A6L6 19-218; O60939 30-215; Q2KI11 23-215); assay: binding FACS, CHO FlpIn cells
T7 construct: polyprotein as encoded, P2A sites liberate the subunits; the entry already carries F276V; also called huNav1.7(F276V)-beta1-beta2-beta3
Description: as §1, §3

rhNav1.7α + β1-β2-β3 = target: T8, rhNav1.7α + β1-β2-β3 (rhesus monkey); assay: binding FACS, CHO FlpIn cells
T8 construct: also called rhNav1.7-beta1-beta2-beta3; rhesus Nav1.7α
Description: as §1, §3

[5] = target: T9, huNav1.7α(R277Q) + β1-β2-β3 (human); assay: binding FACS, CHO FlpIn cells
T9 construct: polyprotein as encoded; the entry already carries R277Q; also called huNav1.7(R277Q)-beta1-beta2-beta3
Description: as §1, §3

[6] = target: T10, huNav1.7α(E281V) + β1-β2-β3 (human); assay: binding FACS, CHO FlpIn cells
T10 construct: polyprotein as encoded; the entry already carries E281V; also called huNav1.7(E281V)-beta1-beta2-beta3
Description: as §1, §3

[7] = target: T11, huNav1.7α(V331M) + β1-β2-β3 (human); assay: binding FACS, CHO FlpIn cells
T11 construct: polyprotein as encoded; the entry already carries V331M; also called huNav1.7(V331M)-beta1-beta2-beta3
Description: as §1, §3

B1: F0103265A11 (VHH)
VHH: EVQLVESGGGLVQPGGSLRLSCAASGMLFNANTQGWYRQAPGKQRELVAFIFSGGYTNYVDSVKGRFTISRDNAKRTMYLQMNSLKPEDSAIYYCSLSRYLGQGTLVTVSS
notes: entry includes the FLAG-HIS6 tag; also called F0103265A11 (parental)-FLAG-HIS6
IC50 (huNav1.7α + β1-β2-β3 [1]): 75 nM | binding result (huNav157chim6 + β1-β2-β3): no binding (tested: 1 µM) | binding result (huNav157chim7 + β1-β2-β3): no binding (tested: 1 µM) | binding result (huNav157chim5 + β1-β2-β3): no binding (tested: 1 µM) | binding result (huNav157chim4 + β1-β2-β3): no binding (tested: 1 µM) | binding result [2]: no binding (tested: 1 µM)

B4: F0103262C02 (VHH)
VHH: EVQLVESGGGLVQAGGSLTLSCAASGLPFGLYILGWIRRAPGKERDFVAAISRSGRDTVYANSVKGRFTISRDNAKNMVYLRMDNLRPEDTAAYYCAVDSVPRGTPTITESEYAIWGQGTLVTVSS
notes: entry includes the FLAG-HIS6 tag; also called F0103262C02 (parental)-FLAG-HIS6; F103262CO2
IC50 (huNav1.7α + β1-β2-β3 [1]): 530 nM | binding result (huNav157chim6 + β1-β2-β3): no binding (tested: 1 µM) | binding result (huNav157chim7 + β1-β2-β3): no binding (tested: 1 µM) | binding result (huNav157chim5 + β1-β2-β3): no binding (tested: 1 µM) | binding result (huNav157chim4 + β1-β2-β3): no binding (tested: 1 µM) | binding result [2]: no binding (tested: 1 µM) | EC50 (huNav1.7α + β1-β2-β3 [3]): 290 nM | EC50 [4]: 210 nM | binding result (rhNav1.7α + β1-β2-β3): no binding | EC50 [5]: 450 nM | EC50 [6]: 240 nM | EC50 [7]: 86 nM

The next binders have a lower IC50 (huNav1.7α + β1-β2-β3 [1]) than those just listed; values first:

IC50 (huNav1.7α + β1-β2-β3 [1]): 49 nM | binding result (huNav157chim6 + β1-β2-β3): no binding (tested: 1 µM) | binding result (huNav157chim7 + β1-β2-β3): no binding (tested: 1 µM) | binding result (huNav157chim5 + β1-β2-β3): no binding (tested: 1 µM) | binding result (huNav157chim4 + β1-β2-β3): no binding (tested: 1 µM) | binding result [2]: no binding (tested: 1 µM) | EC50 (huNav1.7α + β1-β2-β3 [3]): 47 nM | binding result [4]: no binding | binding result (rhNav1.7α + β1-β2-β3): no binding | binding result [5]: no binding | binding result [6]: no binding | EC50 [7]: 63 nM
B2: F0103262B06 (VHH)
VHH: EVQLVESGGGLVQPGGSLRLSCAGSTRTFSTYAMGWFRQAPGREREFVAHINFSGSSTRYADSVKGRFTISRDNAKNMGYLQMNSLKPEDTAVYYCAARWVAGPPRYDYEYWGQGTLVTVSS
notes: entry includes the FLAG-HIS6 tag; also called F0103262B06 (parental)-FLAG-HIS6

IC50 (huNav1.7α + β1-β2-β3 [1]): 18 nM | binding result (huNav157chim6 + β1-β2-β3): no binding (tested: 1 µM) | binding result (huNav157chim7 + β1-β2-β3): no binding (tested: 1 µM) | binding result (huNav157chim5 + β1-β2-β3): no binding (tested: 1 µM) | binding result (huNav157chim4 + β1-β2-β3): no binding (tested: 1 µM) | binding result [2]: no binding (tested: 1 µM) | EC50 (huNav1.7α + β1-β2-β3 [3]): 9.2 nM | binding result [4]: no binding | binding result (rhNav1.7α + β1-β2-β3): no binding | EC50 [5]: 7.1 nM | EC50 [6]: 7.5 nM | binding result [7]: no binding
B3: F0103265B04 (VHH)
VHH: EVQLVESGGGLVQPGGSLRLSCAAPSFIFSNNYMEWYRQAPGKQRDWVARITGRGNTNYLDSVKGRFTISRDDAKNTVYLEIDSLKPEDTAVYYCSALWYGGRAWGKGTLVTVSS
notes: entry includes the FLAG-HIS6 tag; also called F0103265B04 (parental)-FLAG-HIS6
